*: point of attachment. AMC = Cc1cc(=O)oc2cc(N*)ccc12; CH2Cl = ClC*
T1: caspase-10 (Homo sapiens, UniProt Q92851)
T1 sequence (Q92851 220-415 limits assumed): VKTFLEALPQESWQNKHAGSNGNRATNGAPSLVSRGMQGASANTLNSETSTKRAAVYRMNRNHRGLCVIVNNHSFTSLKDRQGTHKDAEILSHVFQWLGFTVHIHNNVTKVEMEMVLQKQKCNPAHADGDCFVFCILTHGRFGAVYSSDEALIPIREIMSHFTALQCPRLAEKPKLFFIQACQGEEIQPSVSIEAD
T1 sequence (Q92851 416-521 limits assumed): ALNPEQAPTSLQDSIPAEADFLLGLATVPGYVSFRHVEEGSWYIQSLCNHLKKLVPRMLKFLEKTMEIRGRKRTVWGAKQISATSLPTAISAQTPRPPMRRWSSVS

T2: caspase-9 (full-length) (Homo sapiens, UniProt P55211)
T2 sequence (P55211 1-315 limits assumed): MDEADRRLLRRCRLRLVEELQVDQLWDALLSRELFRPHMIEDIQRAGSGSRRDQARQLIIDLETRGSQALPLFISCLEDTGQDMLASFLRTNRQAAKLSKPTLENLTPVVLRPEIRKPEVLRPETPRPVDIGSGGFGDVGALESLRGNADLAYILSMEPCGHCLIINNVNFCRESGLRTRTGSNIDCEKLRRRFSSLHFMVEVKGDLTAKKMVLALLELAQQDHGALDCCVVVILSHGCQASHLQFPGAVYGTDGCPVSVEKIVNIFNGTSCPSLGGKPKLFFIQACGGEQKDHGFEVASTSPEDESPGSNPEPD
T2 sequence (P55211 331-416 limits assumed): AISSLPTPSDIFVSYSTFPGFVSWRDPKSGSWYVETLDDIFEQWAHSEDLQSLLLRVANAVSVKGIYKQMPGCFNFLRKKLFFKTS

T3: caspase-3 (Homo sapiens, UniProt P42574)
T3 sequence (P42574 29-175 limits assumed): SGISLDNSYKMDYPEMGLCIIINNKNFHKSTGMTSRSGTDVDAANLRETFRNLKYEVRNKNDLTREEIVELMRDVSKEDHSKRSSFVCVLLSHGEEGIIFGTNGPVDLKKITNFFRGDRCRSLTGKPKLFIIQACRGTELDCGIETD
T3 sequence (P42574 176-277 limits assumed): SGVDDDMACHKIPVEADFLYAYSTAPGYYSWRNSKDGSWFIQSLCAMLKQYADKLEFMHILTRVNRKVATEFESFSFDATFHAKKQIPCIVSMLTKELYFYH

T4: caspase-4 (Homo sapiens, UniProt P49662)
T4 sequence (P49662 81-270 limits assumed): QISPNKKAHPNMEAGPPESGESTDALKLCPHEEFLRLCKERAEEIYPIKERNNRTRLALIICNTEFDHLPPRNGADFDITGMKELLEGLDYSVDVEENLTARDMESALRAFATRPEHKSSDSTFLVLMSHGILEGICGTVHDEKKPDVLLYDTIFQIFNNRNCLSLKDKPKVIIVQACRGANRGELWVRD
T4 sequence (P49662 290-377 limits assumed): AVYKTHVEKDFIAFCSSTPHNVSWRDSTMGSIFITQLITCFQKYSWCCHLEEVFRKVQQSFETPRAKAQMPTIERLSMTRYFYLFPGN

T5: caspase-7 (Homo sapiens, UniProt P55210)
T5 sequence (P55210 24-198 limits assumed): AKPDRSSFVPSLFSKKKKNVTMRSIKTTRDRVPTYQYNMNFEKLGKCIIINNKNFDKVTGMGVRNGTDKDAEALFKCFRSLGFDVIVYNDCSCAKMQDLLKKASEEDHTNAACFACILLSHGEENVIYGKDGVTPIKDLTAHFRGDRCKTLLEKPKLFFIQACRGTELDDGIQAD
T5 sequence (P55210 207-303 limits assumed): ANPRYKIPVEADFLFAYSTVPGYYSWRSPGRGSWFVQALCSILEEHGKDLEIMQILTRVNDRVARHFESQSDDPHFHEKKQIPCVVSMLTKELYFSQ

T6: caspase-6 (Homo sapiens, UniProt P55212)
T6 sequence (P55212 24-179 limits assumed): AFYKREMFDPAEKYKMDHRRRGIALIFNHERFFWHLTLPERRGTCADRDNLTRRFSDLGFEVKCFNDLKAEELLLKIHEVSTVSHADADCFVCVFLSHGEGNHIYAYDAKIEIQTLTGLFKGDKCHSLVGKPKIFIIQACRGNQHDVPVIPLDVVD
T6 sequence (P55212 194-293 limits assumed): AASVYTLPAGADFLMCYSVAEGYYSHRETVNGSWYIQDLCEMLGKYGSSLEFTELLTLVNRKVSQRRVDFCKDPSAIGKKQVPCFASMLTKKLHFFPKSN

T7: caspase-1 (Homo sapiens, UniProt P29466)
T7 sequence (P29466 120-297 limits assumed): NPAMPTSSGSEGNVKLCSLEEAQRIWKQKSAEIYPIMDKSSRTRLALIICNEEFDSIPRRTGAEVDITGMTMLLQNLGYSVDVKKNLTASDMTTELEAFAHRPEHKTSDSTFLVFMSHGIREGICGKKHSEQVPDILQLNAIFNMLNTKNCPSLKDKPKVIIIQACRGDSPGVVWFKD
T7 sequence (P29466 317-404 limits assumed): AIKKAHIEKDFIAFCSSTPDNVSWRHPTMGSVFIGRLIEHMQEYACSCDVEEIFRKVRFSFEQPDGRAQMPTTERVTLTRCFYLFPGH

T8: caspase-11 (Mus musculus, UniProt P70343)
T8 sequence (P70343 81-266 limits assumed): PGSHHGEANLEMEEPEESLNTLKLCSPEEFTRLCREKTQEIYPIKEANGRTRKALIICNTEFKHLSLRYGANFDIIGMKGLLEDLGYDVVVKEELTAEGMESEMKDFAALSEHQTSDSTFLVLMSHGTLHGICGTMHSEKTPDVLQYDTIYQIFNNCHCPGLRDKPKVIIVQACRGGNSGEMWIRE
T8 sequence (P70343 286-373 limits assumed): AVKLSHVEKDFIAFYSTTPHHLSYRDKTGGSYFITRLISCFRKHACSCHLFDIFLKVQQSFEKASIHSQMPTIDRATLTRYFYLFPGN

T9: caspase-5 (Homo sapiens, UniProt P51878)
T9 sequence (P51878 137-327 limits assumed): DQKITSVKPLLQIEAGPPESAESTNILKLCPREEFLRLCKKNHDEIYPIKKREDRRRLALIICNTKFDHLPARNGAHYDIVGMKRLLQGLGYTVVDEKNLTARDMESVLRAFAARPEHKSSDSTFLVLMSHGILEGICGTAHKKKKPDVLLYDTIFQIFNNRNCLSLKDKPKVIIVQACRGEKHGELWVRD
T9 sequence (P51878 347-434 limits assumed): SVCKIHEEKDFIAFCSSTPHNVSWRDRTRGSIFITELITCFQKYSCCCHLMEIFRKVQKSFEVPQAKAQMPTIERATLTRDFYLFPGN


How the values were obtained:
caspase-10 = target: T1, caspase-10; test: In vitro substrate kinetics, caspase-10; format: biochemical; conditions: for K M / Relative k cat/K M / V max: caspase-10, 0.25 activity units/μL
caspase-9 (full-length) = target: T2, caspase-9 (full-length); test: In vitro substrate kinetics, caspase-9; conditions: caspase-9, 1 activity unit/μL, different preparation
caspase-3 = target: T3, caspase-3; test: In vitro substrate kinetics, caspase-3; format: biochemical; conditions: caspase-3, 0.25 activity units/μL
caspase-4 = target: T4, caspase-4; test: In vitro substrate kinetics, caspase-4; format: biochemical; conditions: caspase-4, 0.25 activity units/μL
caspase-7 = target: T5, caspase-7; test: In vitro substrate kinetics, caspase-7; format: biochemical; conditions: caspase-7, 0.25 activity units/μL
caspase-6 = target: T6, caspase-6; test: In vitro substrate kinetics, caspase-6; format: biochemical; conditions: caspase-6, 0.25 activity units/μL
caspase-1 = target: T7, caspase-1; test: In vitro substrate kinetics, caspase-1; format: biochemical; conditions: caspase-1, 0.25 activity units/μL
caspase-8 = caspase-8 (Homo sapiens, UniProt Q14790); test: In vitro substrate kinetics, caspase-8; format: biochemical; conditions: for K M / Relative k cat/K M / V max: caspase-8, 0.25 activity units/μL
Sequence of caspase-8 (Q14790 217-374 limits assumed): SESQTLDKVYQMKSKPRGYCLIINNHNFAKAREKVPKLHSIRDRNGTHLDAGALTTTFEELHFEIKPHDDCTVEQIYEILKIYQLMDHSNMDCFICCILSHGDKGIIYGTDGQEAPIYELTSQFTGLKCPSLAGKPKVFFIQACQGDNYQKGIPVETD
Sequence of caspase-8 (Q14790 385-479 limits assumed): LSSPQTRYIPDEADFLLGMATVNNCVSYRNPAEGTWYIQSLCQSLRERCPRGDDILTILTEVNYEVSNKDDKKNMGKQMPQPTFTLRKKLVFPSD

caspase-11 = target: T8, caspase-11; test: In vitro substrate kinetics, caspase-11; format: biochemical
caspase-5 = target: T9, caspase-5; test: In vitro substrate kinetics, caspase-5; format: biochemical
[1] = target: Caspase-9 (full-length) (human), (recombinant) (human) (UniProt P55211)
[2] = mouse caspase-11, 0.25 activity units/μL
[3] = caspase-5, 0.25 activity units/μL

K M (caspase-10) [µM] | Relative k cat/K M (caspase-10) | V max (caspase-10) [RFU/min] | Relative k cat/K M (caspase-9 (full-length)) | Relative k cat/K M (caspase-3) | K M (caspase-4) [µM] | Relative k cat/K M (caspase-4) | V max (caspase-4) [RFU/min] | Relative k cat/K M (caspase-7) | Relative k cat/K M (caspase-6) | K M (caspase-1) [µM] | Relative k cat/K M (caspase-1) | V max (caspase-1) [RFU/min] | K M (caspase-8) [µM] | Relative k cat/K M (caspase-8) | V max (caspase-8) [RFU/min] | Molecule | other results
70.3 ± 14.6 | 7.20 ± 1.02 | 476.26 ± 38.71 | did not cleave | 482 ± 76.5 | 702 ± 76.3 | 1.27 ± 0.18 | 862.73 ± 31.55 | 561 ± 81.2 | 13.3 ± 2.24 | 47.5 ± 30.8 | 1.41 ± 0.43 | 44.68 ± 15.51 | 0.75 ± 0.12 | 310 ± 60.4 | 218.27 ± 2.74 | Ac-DEVD-AMC [reference compound] | K M (caspase-3): 2.07 ± 0.36 µM; V max (caspase-3): 940.88 ± 31.57 RFU/min; K M (caspase-7): 2.36 ± 0.36 µM; V max (caspase-7): 1266.91 ± 38.79 RFU/min; K M (caspase-6): 35.3 ± 5.12 µM; V max (caspase-6): 455.67 ± 64.18 RFU/min
87.9 ± 5.38 | 10.4 ± 1.30 | 898.63 ± 57.69 | 0.15 | did not detect processing | 1867 ± 388 | 1.44 ± 0.18 | 2546.06 ± 156.63 | did not detect processing | did not detect processing | 93.9 ± 6.26 | 5.01 ± 0.41 | 465.55 ± 10.25 | 9.98 ± 0.37 | 59.2 ± 3.26 | 590.08 ± 30.37 | N-acetyl-Leu-Glu-Ser-Asp-aminomethylcoumarin (Ac-LESD-{AMC}; SMILES CC(=O)N[C@@H](CC(C)C)C(=O)N[C@@H](CCC(=O)O)C(=O)N[C@@H](CO)C(=O)N[C@@H](CC(=O)O)C(=O)Nc1ccc2c(C)cc(=O)oc2c1) [Ac-LESD-AMC] | K M (caspase-11; [2]): 503 ± 58.4 µM; Relative k cat/K M (caspase-11; [2]): 0.42 ± 0.02; V max (caspase-11; [2]): 211.01 ± 15.01 RFU/min; fold slower cleavage by caspase-11 than by caspase-8 (caspase-11; relative k cat/K M): ~100 fold; catalytic efficiency within x-fold of preferred substrate Ac-WEHD-AMC (caspase-5; caspase-5): ≤ 5 fold; K M (caspase-5; [3]): 154 ± 13.5 µM; Relative k cat/K M (caspase-5; [3]): 4.65 ± 0.43; V max (caspase-5; [3]): 703.19 ± 24.07 RFU/min; catalytic efficiency within x-fold of preferred substrate Ac-LEHD-AMC (caspase-10; caspase-10): ≤ 3 fold; K M (caspase-9 (full-length)): 1513.83 ± 441.20 µM; V max (caspase-9 (full-length)): 208.50 ± 45.00 RFU/min; Relative k cat/K M (caspase-9 (full-length); listed as LESD-AMC): 0.15 ± 0.02; catalytic efficiency within x-fold of preferred substrate Ac-LEHD-AMC (caspase-8; caspase-8): ≤ 3 fold
– | – | – | – | – | – | – | – | – | – | – | – | – | – | – | – | Ac-LESD-CH2Cl (SMILES CC(=O)N[C@@H](CC(C)C)C(=O)N[C@@H](CCC(=O)O)C(=O)N[C@@H](CO)C(=O)N[C@@H](CC(=O)O)C(=O)CCl) [N-acetyl-Leu-Glu-Ser-Asp-chloromethylketone] | IC50 of inhibition of caspase activity (rate of cleavage of 200 μM Ac-LEHD-AMC) [1]: 7.45 µM
